Data reported in paper doi:10.1101/2020.04.07.030676.

Biological target: soluble αβ-tubulin heterodimer (bovine) (UniProt Q6B856)
Assay: ITC

Kd: 630 nM
stoichiometry N: 1
B1: MEKK1 TOG domain, MEKK1(542–888) (domain or fragment)
chain: THYGTQQIPPAYKDLAEPWIQVFGMELVGCLFSRNWNVREMALRRLSHDVSGALLLANGESTGNSGGSSGSSPSGGATSGSSQTSISGDVVEACCSVLSMVCADPVYKVYVAALKTLRAMLVYTPCHSLAERIKLQRLLQPVVDTILVKCADANSRTSQLSISTLLELCKGQAGELAVGREILKAGSIGIGGVDYVLNCILGNQTESNNWQELLGRLCLIDRLLLEFPAEFYPHIVSTDVSQAEPVEIRYKKLLSLLTFALQSIDNSHSMVGKLSRRIYLSSARMVTTVPHVFSKLLEMLSVSSSTHFTRMRRRLMAIADEVEIAEAIQLGVEDTLDGQQDSFLQAS
